Data as given in US20190282654A1.
Bridge positions count the residues as written; N and C are the ends. Square brackets hold non-standard residues; d marks the D form. Primed or numbered codes have the meaning given here. Ends that are not written are not given here. 2Nal = N[C@@H](Cc1ccc2ccccc2c1)C(=O)O; BMB″ = not defined here

What was measured:
[1] = target: NEMO (endogenous, in NF-κB reporter (Luc)-HEK293 cells), Q9Y6K9; assay: cell-based or functional assay
GST-NEMO(1-196), Q9Y6K9 = target: T1, GST-NEMO(1-196), Q9Y6K9; assay: HTRF competition: GST-NEMO (30 nM) + biotin-IKKβKK/RR(701-745) (50 nM), 5 mM TCEP
T1 chain: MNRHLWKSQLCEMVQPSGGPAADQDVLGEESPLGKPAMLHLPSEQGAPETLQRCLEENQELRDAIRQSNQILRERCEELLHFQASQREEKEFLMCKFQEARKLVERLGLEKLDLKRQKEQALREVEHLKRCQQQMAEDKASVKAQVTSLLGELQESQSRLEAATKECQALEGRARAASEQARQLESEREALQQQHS

B1: bicyclic peptide 4 (peptide)
peptide: RRRR[2Nal]FCALDWSWLQC
modifications: linker 7-16 via BMB″ (inferred); not fully specified (bridges); reading uncertain
TNFα-induced luciferase activity, NF-κB reporter (Luc)-HEK293 cells, IC50 [1]: 20 µM
IC50 (GST-NEMO(1-196), Q9Y6K9): 3.5 µM
